From patent US7998940B2, “Aptamers to von Willebrand factor and their use as thrombotic disease therapeutics” (Archemix Corp., priority 2004, dated 2011)
Where a chain is given by its changes, count along the chain named. Where two headings read alike, the source gives them in different places. Oligonucleotides are written 5' to 3', each unit as a sugar letter and its base; * is a phosphorothioate linkage, no mark a phosphodiester; rarer units and linkages stand in square brackets, end groups in braces. Plain capitals give the bases only. [invdT] = inverted (3'-3') thymidine; d = 2'-deoxy (DNA); m = 2'-O-methyl; r = 2'-OH (RNA); f = 2'-fluoro

B1: AMX237.A2: DNA SELEX 2 aptamer clone (nucleic acid)
chain: CTACCTACGATCTGACTAGCTCCAGTGTTTCATCCAATAACCGTGCGGTGCCTCCGTGAGCTTACTCTCATGTAGTTCC
modifications: DNA, backbone and methylation of C not given here
notes: DNA SELEX 2 aptamer clone
B2: AMX238.G5: DNA SELEX 2 aptamer clone (nucleic acid)
DNA: B1 chain with C31T, C34T
modifications: DNA, backbone and methylation of C not given here
notes: DNA SELEX 2 aptamer clone
B3: AMX238.D12: DNA SELEX 2 aptamer clone (nucleic acid)
DNA: B1 chain with C34T
modifications: DNA, backbone and methylation of C not given here
notes: DNA SELEX 2 aptamer clone
B4: AMX237.B11: DNA SELEX 2 aptamer clone (nucleic acid)
DNA: B1 chain with C31T, C35T
modifications: DNA, backbone and methylation of C not given here
notes: DNA SELEX 2 aptamer clone
B5: AMX237.A11: DNA SELEX 2 aptamer clone (nucleic acid)
chain: B1 chain with C31T
modifications: DNA, backbone and methylation of C not given here
notes: DNA SELEX 2 aptamer clone
B6: AMX201.C8: rRfY aptamer clone (nucleic acid)
chain: rGrGrArGfCrGfCrAfCfUfCrArGfCfCrAfCfCfCfUfCrGfCrArArGfCrAfUfUfUfUrArArGrArAfUrGrAfCfUfUrGfUrGfCfCrGfCfUrGrGfCfUrGfUfUfUfUfCrGrAfCfCfUfCfUfCfUrGfCfUrArGfC
B7: AMX237.G6: DNA SELEX 2 aptamer clone (nucleic acid)
DNA: CTACCTACGATCTGACTAGCGTGCAGTGCCTATTCCAGGCCGTGCGGTGCCTCCGTCACGCTTACTCTCATGTAGTTCC
modifications: DNA, backbone and methylation of C not given here
notes: DNA SELEX 2 aptamer clone
B8: AMX206.D8: rRdY aptamer clone (nucleic acid)
chain: rGrGrArGdCrGdCrAdCdTdCrArGdCdCrAdCrGrAdCrGrGdTrGrAdTrGrGrAdTdTrArGdCrGdCrGrGdTrGrGrAdTdCdTdTrArAdCrGdTrGdCrGrArGdTdTdTdCrGrAdCdCdTdCdTdCdTrGdCdTrArGdC
B9: AMX205.F7: rRdY aptamer clone (nucleic acid)
chain: rGrGrArGdCrGdCrAdCdTdCrArGdCdCrAdCrAdCrGrAdCrAdTdTrGrGdCrGrGrGdTdTrGdTrArAdTdTrAdCdCrAdCrGdCrAdTrGrGdCdTrGdTdTdTrGdTdTdTdCrGrAdCdCdTdCdTdCdTrGdCdTrArGdC
B10: AMX205.H10: rRdY aptamer clone (nucleic acid)
chain: rGrGrArGdCrGdCrAdCdTdCrArGdCdCrAdCdTrGdTdTrGdCdCrGrAdCrGrGdTrGrAdTrGdTrAdTdTrArAdCrGdCrGrGrGdCrArAdCrGdTdTrGrGdTrGdTdTdTdCrGrAdCdCdTdCdTdCdTrGdCdTrArGdC
B11: AMX203.G9: rRdY aptamer clone (nucleic acid)
chain: rGrGrArGdCrGdCrAdCdTdCrArGdCdCrAdCrGrGrGrGdTrGrGrGdTrArGrAdCrGrGdCrGrGrGdTrAdTrGdTrGrGdCdTrGrGdTrGdTdCrGrArArGrGrGdTdTdTdCrGrAdCdCdTdCdTdCdTrGdCdTrArGdC

How the values were obtained:
[1] = system: full length human vWF binding to lyophilized platelets; test: Full length human von Willebrand Factor platelet binding assay (FACS); type: cell-based; conditions: for Inhibition of full length hVWF binding in FACS assay, IC50 range: both bounds in nM
Summary of the method: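 Aptamer titrations (0.1–1000 nM) pre-incubated with 5 nM full-length human vWF, then added to lyophilized platelets plus botrocetin for 15 min at 37 °C in PBS/0.5% BSA. Bound vWF detected by anti-vWF then FITC secondary antibody via flow cytometry MFI; % inhibition versus no-aptamer binding fitted for IC50.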

[2] = system: rabbit vWF domain A1 binding to lyophilized platelets; test: Rabbit von Willebrand Factor domain A1 platelet binding assay (FACS); type: cell-based
Sequence of rabbit vWF domain A1 binding to lyophilized platelets (as listed by the source): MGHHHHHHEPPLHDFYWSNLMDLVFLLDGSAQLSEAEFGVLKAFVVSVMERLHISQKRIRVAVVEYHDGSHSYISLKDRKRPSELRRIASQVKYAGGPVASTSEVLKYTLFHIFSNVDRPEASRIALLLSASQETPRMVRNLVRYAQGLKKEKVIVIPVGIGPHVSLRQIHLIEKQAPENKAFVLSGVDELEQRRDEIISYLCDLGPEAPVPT
Summary of the method: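 Aptamers (0.1–1000 nM) preincubated with 4 nM His-tagged rabbit vWF A1 in PBS/0.5% BSA, then lyophilized human platelets plus botrocetin added, 15 min at 37 °C. Bound A1 detected by anti-His-biotin and PE secondary via flow cytometry (median fluorescence, background-subtracted); IC50 fitted from percent inhibition.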

full length human vWF = test: 3-point dot blot screen, full length human vWF; type: binding; conditions: 20 nM full length human vWF, ratio of fraction of aptamer bound with target protein to fraction bound without protein
Summary of the method: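 Unique aptamer clones tested twice by nitrocellulose dot blot with no protein, 20 nM full-length human vWF or 20 nM rabbit vWF A1 domain. Value is fraction of aptamer bound with target divided by fraction bound without protein.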

[3] = read-out: FACS IC50 vs human full length vWF
[4] = read-out: FACS IC50 vs rabbit A1 domain
[5] = 5 nM full length human vWF, lyophilized platelets, botrocetin, read-out: Inhibition of full length hVWF binding in FACS assay, Average IC50
[6] = 5 nM full length human vWF, lyophilized platelets, botrocetin, units in the cell: lower bound pM, upper bound nM, read-out: Inhibition of full length hVWF binding in FACS assay, IC50 range
[7] = 4 nM rabbit A1 vWF, lyophilized platelets, botrocetin, both bounds in nM, read-out: Inhibition of rabbit VWF A1 domain binding in FACS assay, IC50 range
[8] = 4 nM rabbit A1 vWF, lyophilized platelets, botrocetin, read-out: Inhibition of rabbit VWF A1 domain binding in FACS assay, Average IC50
[9] = 5 nM full length human vWF, lyophilized platelets, botrocetin
[10] = 4 nM rabbit A1 vWF, lyophilized platelets, botrocetin, both bounds in nM

Molecule | Screen- Human/No Protein (full length human vWF) | IC50 [1, 5] [pM] | IC50 [1, 6] [pM] | IC50 [2, 7] [nM] | further results
dGdGdCdGTdGdCdAdGTdGdCdCTTdCdGdGdCdCdGTdGdCdGdGTdGdCdCTdCdCdGTdCdAdCdGdCdC-3T (DNA GGCGTGCAGTGCCTTCGGCCGTGCGGTGCCTCCGTCACGCC; DNA, [invdT] at 3' end, backbone and methylation of C not given here) [ARC1172, ARC1115 with 3'-inverted dT] |  |  |  |  | IC50 [1, 3]: 2000 pM; IC50 [2, 4]: 2 nM
mGmCmGmUdGdCdAmGmUmGmCmCmUmUmCmGmGmCdCmG-s-TmGdCdGdGTmGmCdCmUdCdCmGmUdCmAmCmGmC-3T (GCGUGCAGUGCCUUCGGCCGTGCGGTGCCUCCGUCACGC; sugars from the 5' end mmmmdddmmmmmmmmmmmdmdmddddmmdmddmmdmmmm, [invdT] at 3' end, backbone not given here) [ARC1368] |  |  |  |  | IC50 [1, 3]: 2000 pM; IC50 [2, 4]: 4 nM
B1 | 2.60 | 3500 | 815 to 7300 | 7 | 
B2 | 3.06 | 1100 | 273 to 2600 | 5.5 | 
B3 | 2.40 | 2000 | 684 to 3400 | 7.2 | 
B4 | 2.87 | 2500 | 151 to 4800 | 5.7 | 
B5 | 2.66 | 2200 | 466 to 5600 | 4.7 | 
B6 |  | 528 | 24 to 1800 |  | IC50 [2, 8]: 0.682 nM
B7 | 3.80 | 1900 |  |  | 
B8 |  |  |  |  | Inhibition of full length hVWF binding in FACS assay, IC50 range [1, 9]: no activity; Inhibition of rabbit VWF A1 domain binding in FACS assay, IC50 range [2, 10]: no activity
B9 |  | 818 | 321 to 1600 |  | IC50 [2, 8]: 4.7 nM
B10 |  |  |  |  | Inhibition of full length hVWF binding in FACS assay, IC50 range [1, 9]: no activity; Inhibition of rabbit VWF A1 domain binding in FACS assay, IC50 range [2, 10]: no activity
B11 |  | 4700 |  |  | IC50 [2, 8]: 0.592 nM; IC50 ([2]; 4 nM rabbit A1 vWF, lyophilized platelets, botrocetin, units in the cell: lower bound pM, upper bound nM, read-out: Inhibition of rabbit VWF A1 domain binding in FACS assay, IC50 range): 0.152 to 1.6 nM
